From paper PMC6344521 come the findings set out here.

One may read the stoichiometry N as a count of units in the complex or per binding partner.

The target in assay [1] is OVX836, NP of influenza A (A/Wilson-Smith/1933) fused through its C-terminus to the oligomerization domain OVX313 (influenza A virus (strain A/Wilson-Smith/1933)). Briefly: SEC.
The target is the same in assay [2]. Briefly: reversed-phase chromatography (RP-UHPLC).
Assay [3] concerns the target T1, nucleoprotein (NP) of influenza A, prototype human isolate A/Wilson-Smith/1933 (influenza A virus (strain A/Wilson-Smith/1933)), P15682.
T1 chain: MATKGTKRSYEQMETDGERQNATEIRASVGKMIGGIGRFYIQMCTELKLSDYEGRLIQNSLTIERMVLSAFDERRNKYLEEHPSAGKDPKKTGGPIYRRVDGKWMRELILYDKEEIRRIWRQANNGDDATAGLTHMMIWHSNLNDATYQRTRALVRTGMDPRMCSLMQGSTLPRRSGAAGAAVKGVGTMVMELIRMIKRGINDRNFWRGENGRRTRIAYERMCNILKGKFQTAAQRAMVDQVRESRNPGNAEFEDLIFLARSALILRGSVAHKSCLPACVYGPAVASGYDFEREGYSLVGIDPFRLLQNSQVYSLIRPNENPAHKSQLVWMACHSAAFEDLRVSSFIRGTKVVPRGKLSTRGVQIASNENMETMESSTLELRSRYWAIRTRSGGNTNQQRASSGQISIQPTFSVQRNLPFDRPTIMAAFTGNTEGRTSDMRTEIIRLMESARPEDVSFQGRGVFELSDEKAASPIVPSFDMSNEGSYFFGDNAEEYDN
The assay is described as follows: SEC. The conditions noted are these: remark: other sources report otherwise.

For “OVX836, NP of influenza A (A/Wilson-Smith/1933) fused through its C-terminus to the oligomerization domain OVX313”, the stoichiometry N in assay [1] and in assay [2] was 7 throughout.

B1: nucleoprotein (NP) of influenza A, prototype human isolate A/Wilson-Smith/1933, P15682 1-498 (natural protein)
chain: MATKGTKRSYEQMETDGERQNATEIRASVGKMIGGIGRFYIQMCTELKLSDYEGRLIQNSLTIERMVLSAFDERRNKYLEEHPSAGKDPKKTGGPIYRRVDGKWMRELILYDKEEIRRIWRQANNGDDATAGLTHMMIWHSNLNDATYQRTRALVRTGMDPRMCSLMQGSTLPRRSGAAGAAVKGVGTMVMELIRMIKRGINDRNFWRGENGRRTRIAYERMCNILKGKFQTAAQRAMVDQVRESRNPGNAEFEDLIFLARSALILRGSVAHKSCLPACVYGPAVASGYDFEREGYSLVGIDPFRLLQNSQVYSLIRPNENPAHKSQLVWMACHSAAFEDLRVSSFIRGTKVVPRGKLSTRGVQIASNENMETMESSTLELRSRYWAIRTRSGGNTNQQRASSGQISIQPTFSVQRNLPFDRPTIMAAFTGNTEGRTSDMRTEIIRLMESARPEDVSFQGRGVFELSDEKAASPIVPSFDMSNEGSYFFGDNAEEYDN
For B1, in assay [3], the stoichiometry N was determined as 3.
